Read-outs that look alike come from different tables or passages of the source. Bridge positions count the residues as written; N and C are the ends. Square brackets hold non-standard residues; d marks the D form.
What was measured:
[1] = molecular target: T1, proprotein convertase subtilisin/kexin type 9 (PCSK9) (human, UniProt Q8NBP7 31-692); test: phage spot ELISA
T1 construct: His-tagged full-length PCSK9 in TR-FRET and SPR, biotinylated in phage ELISA; secreted protein is autoprocessed (prodomain plus catalytic/CRD chain starting at S153); also called rec.PCSK9; His-PCSK9
T1 sequence (Q8NBP7 other isoform, or with tags, fused parts or gaps limits assumed): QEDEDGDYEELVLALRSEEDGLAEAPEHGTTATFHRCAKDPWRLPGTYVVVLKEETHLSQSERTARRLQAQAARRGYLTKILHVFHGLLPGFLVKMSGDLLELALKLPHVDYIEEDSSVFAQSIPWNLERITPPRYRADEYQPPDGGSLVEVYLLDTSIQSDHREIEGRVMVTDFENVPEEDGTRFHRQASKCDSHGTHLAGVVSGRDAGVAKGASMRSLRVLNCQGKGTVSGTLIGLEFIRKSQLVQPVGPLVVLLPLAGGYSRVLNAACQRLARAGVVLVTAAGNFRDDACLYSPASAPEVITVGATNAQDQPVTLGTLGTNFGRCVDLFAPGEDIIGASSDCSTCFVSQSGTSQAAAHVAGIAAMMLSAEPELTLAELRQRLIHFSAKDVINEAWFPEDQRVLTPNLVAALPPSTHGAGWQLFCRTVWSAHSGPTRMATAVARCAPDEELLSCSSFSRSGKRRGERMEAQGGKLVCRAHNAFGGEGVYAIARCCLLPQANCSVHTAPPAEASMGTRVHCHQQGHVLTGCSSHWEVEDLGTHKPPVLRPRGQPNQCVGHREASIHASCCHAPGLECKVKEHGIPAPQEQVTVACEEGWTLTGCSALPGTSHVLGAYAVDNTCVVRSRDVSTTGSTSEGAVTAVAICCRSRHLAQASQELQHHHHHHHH
Text: The binding signal of the same phage particle to NeutrAvidin was considered as non-specific binding (“noise”).

PCSK9Δhelix [2] = molecular target: T2, PCSK9Δhelix (human, Chemically biotinylated in the phage ELISAs; the site is not given.); test: phage spot ELISA
T2 construct: construct M1-Q692 with engineered TEV site, cleaved by TEV; also called His-PCSK9Δhelix; open groove PCSK9Δhelix
T2 sequence (prodomain, as listed by the source mutant limits assumed, chain 1 of 2): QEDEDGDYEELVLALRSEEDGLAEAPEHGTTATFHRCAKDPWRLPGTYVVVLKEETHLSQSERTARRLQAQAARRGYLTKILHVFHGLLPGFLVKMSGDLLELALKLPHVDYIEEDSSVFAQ
T2 sequence (chain, as listed by the source mutant limits assumed, chain 2 of 2): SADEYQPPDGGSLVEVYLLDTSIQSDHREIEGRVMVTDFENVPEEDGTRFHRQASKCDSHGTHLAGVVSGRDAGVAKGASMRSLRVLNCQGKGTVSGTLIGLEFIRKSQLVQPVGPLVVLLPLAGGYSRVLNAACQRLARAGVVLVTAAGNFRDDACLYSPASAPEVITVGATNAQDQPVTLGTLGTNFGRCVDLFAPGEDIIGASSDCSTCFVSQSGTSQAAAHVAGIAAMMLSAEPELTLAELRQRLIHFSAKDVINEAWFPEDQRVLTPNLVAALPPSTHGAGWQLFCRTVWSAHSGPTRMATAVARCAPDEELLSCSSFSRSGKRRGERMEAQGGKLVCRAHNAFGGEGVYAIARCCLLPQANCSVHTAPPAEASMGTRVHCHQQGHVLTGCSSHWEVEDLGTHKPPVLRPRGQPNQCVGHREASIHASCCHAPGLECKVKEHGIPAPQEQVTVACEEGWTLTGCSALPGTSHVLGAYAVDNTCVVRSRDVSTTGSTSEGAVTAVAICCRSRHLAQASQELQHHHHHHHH

[3] = molecular target: T3, His-tagged, full-length PCSK9 (human, UniProt Q8NBP7 31-692); test: TR-FRET competition (PCSK9/EGF(A) assay); competitor EGF(A)-Fc;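 note: proximity signal from anti-His APC on PCSK9 paired with anti-Fc europium on the Fc ligand, read as normalized TR-FRET ratio across compound dilutions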
T3 construct: secreted PCSK9 is autocatalytically cleaved into prodomain and catalytic domain + CRD (from S153), which stay associated; also called His-PCSK9; proprotein convertase subtilisin/kexin type 9; not shown: His tag
T3 sequence (Q8NBP7 31-692 limits assumed): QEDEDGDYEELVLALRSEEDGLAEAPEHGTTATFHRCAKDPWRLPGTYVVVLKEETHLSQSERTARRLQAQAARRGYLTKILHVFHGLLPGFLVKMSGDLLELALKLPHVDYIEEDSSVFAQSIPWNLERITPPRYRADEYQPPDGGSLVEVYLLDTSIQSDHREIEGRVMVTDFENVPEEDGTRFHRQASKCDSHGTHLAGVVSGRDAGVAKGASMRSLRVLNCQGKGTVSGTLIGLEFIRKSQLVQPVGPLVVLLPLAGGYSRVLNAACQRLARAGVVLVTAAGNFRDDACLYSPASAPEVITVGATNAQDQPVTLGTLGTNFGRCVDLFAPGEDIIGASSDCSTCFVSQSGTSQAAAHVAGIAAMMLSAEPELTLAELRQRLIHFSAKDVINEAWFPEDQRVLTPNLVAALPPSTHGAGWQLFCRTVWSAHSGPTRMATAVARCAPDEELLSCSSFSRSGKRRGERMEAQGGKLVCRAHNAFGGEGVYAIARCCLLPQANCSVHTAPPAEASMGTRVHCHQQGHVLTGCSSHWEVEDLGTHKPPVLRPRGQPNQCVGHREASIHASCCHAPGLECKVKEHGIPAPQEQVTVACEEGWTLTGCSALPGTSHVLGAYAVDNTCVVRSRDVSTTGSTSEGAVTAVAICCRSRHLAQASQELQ

[4] = molecular target: T1, proprotein convertase subtilisin/kexin …; test: phage spot ELISA; remark: listed apart in the source
PCSK9Δhelix [5] = molecular target: T2, PCSK9Δhelix; test: phage spot ELISA; remark: listed apart in the source

Binder | ELISA [1] | s/n ratio [1] | ELISA (PCSK9Δhelix [2]) | s/n ratio (PCSK9Δhelix [2]) | IC50 [3] [µM] | other results
TAFTSWEEYLDWVGSGMVYVDRGVRVFT [SEQ ID NO 322] | 2.82 | 27.9 | 2.71 | 25.1 |  | 
Ac-CRLPW[dN]LQRIGLPC-NH2 (disulfide 1-14; SMILES CC[C@H](C)[C@@H]1NC(=O)[C@H](CCCNC(=N)N)NC(=O)[C@H](CCC(N)=O)NC(=O)[C@H](CC(C)C)NC(=O)[C@@H](CC(N)=O)NC(=O)[C@H](Cc2c[nH]c3ccccc23)NC(=O)[C@@H]2CCCN2C(=O)[C@H](CC(C)C)NC(=O)[C@H](CCCNC(=N)N)NC(=O)[C@@H](NC(C)=O)CSSC[C@@H](C(N)=O)NC(=O)[C@@H]2CCCN2C(=O)[C@H](CC(C)C)NC(=O)CNC1=O) [Compound 105 (Ac-CRLPWnLQRIGLPC-NH2)] |  |  |  |  | > 50 | 
TAFTSWEEYLDWVGSGMPWNLARIER [SEQ ID NO 318] | 2.86 | 27.8 | 3 | 30.3 |  | 
TAFTSWEEYLDWVGSGALWNMRRVESVAFR [SEQ ID NO 319] | 3.09 | 23.9 | 3.04 | 20.1 |  | 
TAFTSWEEYLDWVGSGNELWNINRLRSS [SEQ ID NO 317] | 2.94 | 12 | 2.76 | 13.2 |  | 
TAFTSWEEYLDWVGSGTRYADRGVMVYSLS [SEQ ID NO 321] | 2.85 | 23 | 2.81 | 22.8 |  | ELISA [4]: 3.03; s/n ratio [4]: 30.3; ELISA (PCSK9Δhelix [5]): 3.03; s/n ratio (PCSK9Δhelix [5]): 27.5
Ac-CRLP[dW]NLQRIGLPC-NH2 (disulfide 1-14; SMILES CC[C@H](C)[C@@H]1NC(=O)[C@H](CCCNC(=N)N)NC(=O)[C@H](CCC(N)=O)NC(=O)[C@H](CC(C)C)NC(=O)[C@H](CC(N)=O)NC(=O)[C@@H](Cc2c[nH]c3ccccc23)NC(=O)[C@@H]2CCCN2C(=O)[C@H](CC(C)C)NC(=O)[C@H](CCCNC(=N)N)NC(=O)[C@@H](NC(C)=O)CSSC[C@@H](C(N)=O)NC(=O)[C@@H]2CCCN2C(=O)[C@H](CC(C)C)NC(=O)CNC1=O) [Compound 106 (Ac-CRLPwNLQRIGLPC-NH2)] |  |  |  |  | > 50 | 
Ac-CRL[dP]WNLQRIGLPC-NH2 (disulfide 1-14; SMILES CC[C@H](C)[C@@H]1NC(=O)[C@H](CCCNC(=N)N)NC(=O)[C@H](CCC(N)=O)NC(=O)[C@H](CC(C)C)NC(=O)[C@H](CC(N)=O)NC(=O)[C@H](Cc2c[nH]c3ccccc23)NC(=O)[C@H]2CCCN2C(=O)[C@H](CC(C)C)NC(=O)[C@H](CCCNC(=N)N)NC(=O)[C@@H](NC(C)=O)CSSC[C@@H](C(N)=O)NC(=O)[C@@H]2CCCN2C(=O)[C@H](CC(C)C)NC(=O)CNC1=O) [Compound 107 (Ac-CRLpWNLQRIGLPC-NH2)] |  |  |  |  | > 50 | 
Ac-CRLPWNLQR[dI]GLPC-NH2 (disulfide 1-14; SMILES CC[C@@H](C)[C@H]1NC(=O)[C@H](CCCNC(=N)N)NC(=O)[C@H](CCC(N)=O)NC(=O)[C@H](CC(C)C)NC(=O)[C@H](CC(N)=O)NC(=O)[C@H](Cc2c[nH]c3ccccc23)NC(=O)[C@@H]2CCCN2C(=O)[C@H](CC(C)C)NC(=O)[C@H](CCCNC(=N)N)NC(=O)[C@@H](NC(C)=O)CSSC[C@@H](C(N)=O)NC(=O)[C@@H]2CCCN2C(=O)[C@H](CC(C)C)NC(=O)CNC1=O) [Compound 101 (Ac-CRLPWNLQRiGLPC-NH2)] |  |  |  |  | > 50 | 
Ac-CRLPWNL[dQ]RIGLPC-NH2 (disulfide 1-14; SMILES CC[C@H](C)[C@@H]1NC(=O)[C@H](CCCNC(=N)N)NC(=O)[C@@H](CCC(N)=O)NC(=O)[C@H](CC(C)C)NC(=O)[C@H](CC(N)=O)NC(=O)[C@H](Cc2c[nH]c3ccccc23)NC(=O)[C@@H]2CCCN2C(=O)[C@H](CC(C)C)NC(=O)[C@H](CCCNC(=N)N)NC(=O)[C@@H](NC(C)=O)CSSC[C@@H](C(N)=O)NC(=O)[C@@H]2CCCN2C(=O)[C@H](CC(C)C)NC(=O)CNC1=O) [Compound 103 (Ac-CRLPWNLqRIGLPC-NH2)] |  |  |  |  | > 50 | 
TAFTSWEEYLDWVGSGGHPLWNLSRI [SEQ ID NO 316] | 2.73 | 25.7 | 2.6 | 9.12 |  | 
TAFTSWEEYLDWVGSGGEYLWNLKRLES [SEQ ID NO 320] | 2.84 | 28.7 | 2.94 | 26 |  | 
TAFTSWEEYLDWVGSGRGGYELNIPR [SEQ ID NO 326] | 2.93 | 26.1 | 2.69 | 18.8 |  | ELISA [4]: 3.13; s/n ratio [4]: 29.8; ELISA (PCSK9Δhelix [5]): 2.92; s/n ratio (PCSK9Δhelix [5]): 25.6
TAFTSWEEYLDWVGSGVPWNLARL [SEQ ID NO 314] | 2.82 | 29.3 | 2.68 | 27.3 |  | 
TAFTSWEEYLDWVGSGVPWNLAKI [SEQ ID NO 315] | 2.69 | 22.4 | 2.67 | 24.1 |  | 
Ac-CRLPWNLQ[dR]IGLPC-NH2 (disulfide 1-14; SMILES CC[C@H](C)[C@@H]1NC(=O)[C@@H](CCCNC(=N)N)NC(=O)[C@H](CCC(N)=O)NC(=O)[C@H](CC(C)C)NC(=O)[C@H](CC(N)=O)NC(=O)[C@H](Cc2c[nH]c3ccccc23)NC(=O)[C@@H]2CCCN2C(=O)[C@H](CC(C)C)NC(=O)[C@H](CCCNC(=N)N)NC(=O)[C@@H](NC(C)=O)CSSC[C@@H](C(N)=O)NC(=O)[C@@H]2CCCN2C(=O)[C@H](CC(C)C)NC(=O)CNC1=O) [Compound 102 (Ac-CRLPWNLQrIGLPC-NH2)] |  |  |  |  | > 50 | 
Ac-CRLPWNLQRIG[dL]PC-NH2 (disulfide 1-14; SMILES CC[C@H](C)[C@@H]1NC(=O)[C@H](CCCNC(=N)N)NC(=O)[C@H](CCC(N)=O)NC(=O)[C@H](CC(C)C)NC(=O)[C@H](CC(N)=O)NC(=O)[C@H](Cc2c[nH]c3ccccc23)NC(=O)[C@@H]2CCCN2C(=O)[C@H](CC(C)C)NC(=O)[C@H](CCCNC(=N)N)NC(=O)[C@@H](NC(C)=O)CSSC[C@@H](C(N)=O)NC(=O)[C@@H]2CCCN2C(=O)[C@@H](CC(C)C)NC(=O)CNC1=O) [Compound 100 (Ac-CRLPWNLQRIGlPC-NH2)] |  |  |  |  | > 50 | 
Ac-CRLPWN[dL]QRIGLPC-NH2 (disulfide 1-14; SMILES CC[C@H](C)[C@@H]1NC(=O)[C@H](CCCNC(=N)N)NC(=O)[C@H](CCC(N)=O)NC(=O)[C@@H](CC(C)C)NC(=O)[C@H](CC(N)=O)NC(=O)[C@H](Cc2c[nH]c3ccccc23)NC(=O)[C@@H]2CCCN2C(=O)[C@H](CC(C)C)NC(=O)[C@H](CCCNC(=N)N)NC(=O)[C@@H](NC(C)=O)CSSC[C@@H](C(N)=O)NC(=O)[C@@H]2CCCN2C(=O)[C@H](CC(C)C)NC(=O)CNC1=O) [Compound 104 (Ac-CRLPWNlQRIGLPC-NH2)] |  |  |  |  | > 50 | 

— patent US20200283478A1 (Genentech, published 2020)
